Measured values as given in IntAct's records for PubMed 21926999.

Target: ARHGAP24, Q8N264-1
Sequence (Q8N264 whole entry): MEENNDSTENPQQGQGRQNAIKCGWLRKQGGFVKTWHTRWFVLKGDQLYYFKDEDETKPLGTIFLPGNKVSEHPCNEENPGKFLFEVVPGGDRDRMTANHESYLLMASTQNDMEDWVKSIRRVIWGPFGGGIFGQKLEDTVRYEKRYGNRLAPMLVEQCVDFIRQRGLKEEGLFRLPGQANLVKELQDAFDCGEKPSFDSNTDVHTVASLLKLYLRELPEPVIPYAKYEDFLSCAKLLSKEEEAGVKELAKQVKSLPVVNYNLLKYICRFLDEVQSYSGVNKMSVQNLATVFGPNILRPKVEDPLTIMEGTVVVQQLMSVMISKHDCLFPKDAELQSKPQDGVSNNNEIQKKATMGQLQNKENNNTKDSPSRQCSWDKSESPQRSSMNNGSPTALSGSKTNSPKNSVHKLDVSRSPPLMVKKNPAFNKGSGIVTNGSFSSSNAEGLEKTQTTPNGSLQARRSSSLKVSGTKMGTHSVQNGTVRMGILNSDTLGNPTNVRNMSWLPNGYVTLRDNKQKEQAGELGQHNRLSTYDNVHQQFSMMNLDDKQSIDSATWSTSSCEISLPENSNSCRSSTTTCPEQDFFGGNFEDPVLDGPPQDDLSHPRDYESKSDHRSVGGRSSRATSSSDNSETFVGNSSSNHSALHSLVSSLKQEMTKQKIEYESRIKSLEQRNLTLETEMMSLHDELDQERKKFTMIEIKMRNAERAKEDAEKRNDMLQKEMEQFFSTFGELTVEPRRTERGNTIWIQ

Substance: Filamin-A (Homo sapiens), P21333 M2474E
- effect of a mutation on the interaction: disrupting interaction
